Data reported in the domain aggregation screens of Martell et al. (2025).

Test: soluble fraction after stress (log2 fold change); higher = more stays soluble; pooled small domains, quantitative proteomics
Conditions: stress: 75 degC
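Also: 20 min heating vs room temperature control held 20 min.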

Sequence	soluble fraction (log2)
HMNPNSIDEKLKLLSNREKEVAILVLKKLSYFEISEQLNITIRTVKAHTKNIYEKFNVSNRLAFLLLFN	-0.00667
HMNPSAFSEYSFELLQSALLKKKIDENLSNQTIARDAGVSEAFVQKVLTNNVKRPSVKNRVRMISYLGLD	-1.47
HMNPSFTMGTRIKEYIDAHYLEDLKLADIAEALHINLYYLSHTFKDLTGSSPMQYIIRRRIEE	-0.857
HMNPSPYLRRHLSGDWGDLDEDDRRSNDAALASGEARLLSSYQVDPDLKLWIITEWDRSVTTLLLPSE	-0.0994
HMNPTLPYGFAKRHGVILLEAGEVAVVGLREGADPAALIETRRALGRPLRVEPLDQATFDRRLSQVYA	-0.512
HMNPTSLTFRSNVKDGKVYVDGIFKGSSDLDFDLPKGRHSIRIEKDGYVPFAKTINLIKALVIDFNMEKA	-2.02
HMNPTTQIQYNLPKSEFVSIYIYDLIGNRVKSLINNYQDAGYKSVYWDAMNDLGQPVSAGMYIY	-0.0727
HMNQKKFIQADYEDRLFDHLAFEVKDMEKIISMMRREKFTITDEPFRLSPTGSLIAFVEDPDRTLIELIER	-0.41
HMNQNAMIGAHIRNLRLAKKLTLKQLSDESGLSVGFLSQLERGMSSIAIDTLARLAHILGADLSSFF	-2.65
HMNQRQLQIKQMLDVAQEVFLKQLKTVFPDVSEMTIRRDLILLEDMGYAVRTHGGAVSINRF	-2.42
HMNQRTATVTASQLNVRSGPSTAYSIVHVLRQGETVEVIGESDGWYQIRLKDGRVGWSSGQYLNLN	-0.142
HMNQSAVMAERMKQTKNRILQTAKEIFLEQGYKRTTIRQIVERSGITSGSIYNIFSSKEEIFSALVDDL	-3
HMNQSYQLWIKDDELGPTPRSVGVLNEHFEVDPAALTNYDAELLRRATFGISLEPRGGSPTGQP	-0.192
HMNQTPQISYSQFIADVRSGQIKDVNIDSDNRTIVGHKFSGEEFTTFSPGDNKLVDELLNYNVEIKTSP	0.611
HMNREEFLSQLERLLYDIPAQEREEALEYYNGYFDDAGKEKEAEVIQELGSPGKVAAIIKADLSG	0.12
HMNRETAISIYRILHILEEPYKEVFTLRTLGDLSYREIADIFGKQENWARVTYHRAKLKIREALVS	-2.23
HMNRIFQERVVPAELDTLRADKVAASLFSDFSRNELAHWIKMGDLSINGGVKKAKDKLFEGDVLILDVEIV	-0.944
HMNRKILVLLAGKEQITDNVSVMQSIHRYAFINTATINKAQHEILIEKEEIRQEALTLIHEFLK	-0.97
HMNRKLKAKATREKIYKSAEKLFSQNDYNKVSVDAIVEAAGVAKGSFYVHFASKDALIAMLINDH	-0.448
HMNRMKLLREQHNLSQTDLAKILNISRQSYNFYENEKRDPDTTMLIRIADFFNVSLDYLLGRTNN	-2.84
HMNRPYVELFSGLGQEEAQQIVQKLQEDEVDYKFSGDSTILVKEDVVDQTKATLVQEGYPKS	0.153
HMNSEEINDVRKAVDELPTHLREILLLNYFQQMSYVQISDSLEIPLGTVKSRLHAAVAAFRNAWQSSQEE	-0.484
HMNSEELFLRRIAQELIDQHGKDLHRIIVVLPSNRSKVFLKKFLFEILGSAFLTPQLMLLPQFVKSIV	-0.425
HMNSFGWESFVGEKGVTDTDLRPSGWIVIKDKRLFALTEGTFIEKGVSVEILSVEGNRIVVREIS	-2.9
HMNSHKIIDRLNQMITEKDLSEEMPAITEAFKNNERSAEDLKKYVAENLSKKLNAEEREKFVSLILQYRN	-0.0788
HMNSILFAITKEGGVVYGGKPVGVNGVRPLVRRLLQSEEMPVILQVDEKADAGLVIRVIDESKLGGASKV	-0.372
HMNSIQEQIEKYVYSLAPVTIERYESLKNGDIEDIEFEKLRKSISSKIINEKIDNKKQVAILSHLKKMYSD	-0.159
HMNSKIIVESIIKSKNGIAKVADLVEGGVSRQSIKKMYADGYIKRISRGYYTLTSEPVSSDEQVISS	-0.645

Sequence	soluble fraction (log2)
HMNSKMTYSELITSMENKEVESVKISSSGDVASVKLKNSKTEKEVKIPSLDSFMTYTEQYLKTGEITLEE	0.0529
HMNSKMTYSELVTNITNKEVESIKISSTGSTASVKLKNSKSEKEVNIPSLDSFMSYTEEYLKTGDFTLDEE	0.586
HMNSLKNKNNLIALVGASNDKNKYGNKILLDLVSKGHNVVPINPKEDTVAGLKSYNNVSELSEKPSI	-0.523
HMNSLPFSNFMNEVEAGRVVEVKIQGNNISGVLANGKTFSTYSPNYPELVEKLSSNGVSIVATPQ	0.28
HMNSRTLAYSDFIRKVDKGEVSAVVIDGEQVQVQTKDGQTFVTIQPQSEQMNDKLVEQLIAKDISVKAERQ	-0.0843
HMNSSLFLARQVHALRKKAGLTLQQLSRKSDVSVSTLSKIEKGQLSPTYEKIVSLARGLDVPIAALFHE	-2.45
HMNSSTVDLAKEFLIDLLSSVEKMPASEVQEEAKNAGYSVASIRRAKDNLNIKPFKDGSAWYWKLPSIFK	-0.329
HMNSSTYIVTFKVDGEEDIVETYQWGDRIIVPEVEAKDDYVFIGWDAQIPEFMPERNLEFTAI	-0.895
HMNSTNYQVIITANGGLNIRAGASTAYARIGGYAKGTVVTILAESNGFGKTDKGWISLNYTSKDLD	-3.11
HMNTAALSLQRRNEIKKWLLEEKTLTVAALSNRFNVTYETIRRDLEILEKEGFLKKVYGGAALNERV	-2.83
HMNTAIDGLIEKVGMFAMEKKAISVDQVKENFSINGEQAESVIKQLETIGVLGKKNEDGTHTVM	0.159
HMNTDALIGKTGYVTEIVGERHGRIQFSGGEWSARTEGVSIPVGAEVRVDRIDGATAVVSAV	0.114
HMNTDVEKQKVFTALFDDYFRRNSMTSLEKQLFLTALKTNFQNAQKTVAKDHPYYATYSLIISAIENYR	-0.525
HMNTEEKILEKEFLMLYSELGLQPKNIYELMENTGLKYEKLVEMLLQLQLKGLVEQPSYNYYSRL	-1.28
HMNTEEVGSYLKKLRLEHSFTQKELAGKLYITHQAVSNWEKGKALPDIGILSQLGDIYGISIDNLLLK	-2.04
HMNTEKRVFAGVENTRLDHFLVEQFPEFSRTFIQQMIKSANVIVNGNIEKASYKLREGDTIMTRPM	-0.489
HMNTELFTKNLFNKLEVLLGEKNWKSKTAQLLNISSDAFYKKIRNESQLNLHELLLIKDTFKISIDALLDE	-1.35
HMNTETAVTKAIDQIQVMMDLRNRSVSFTRDQETGTDIIKVIDDNTGDTIRQMPSEELLTFMKNLTQ	0.165
HMNTFKNIFIQEGDLFNLKKNDNQIIFAKEGILINENKKIFRLLNGKIISTNNNRLIGFEFDKIDYNLSN	0.561
HMNTGIPHQEVIKKLYSFAEGGDWKGLKEELNRIKEYTLFYNSVKELADSFEINRLIEKLKTYIF	-0.127
HMNTGLSEREHEIAQLVLQGRTYAEIGAELFISPRTAEHHIGQIRRRLAATSRSDLLAKLRVAMNTTEGAG	-2.36
HMNTISYTELIKQIDEGNVEKVEMTVGSTSVKVKLQGQEEEKKAIVPNTQAFVELIQEKTLEGNQIDLKQN	0.0122
HMNTLSPVRILAILDGRSSMAEWQLAEELGVSIDNLSEILNKMSTDGQIRLVPSEDGRMVVP	0.597
HMNTPALRQRTQDVPALLIHFAKYFATKGQTPISFAPDFLEALKDYPWPGNVRELRNLVESMVV	-0.133
HMNTPHLTPREREVLKGIVDGLINKEIAARMGVSVATVITHRNNLTEKLGTRSVSALTIFAVMHGIVR	-2.55
HMNTPNYDVLYRGLADADAGQIMEALQKSNIPFKVDSHSGVLLVPADQVHEARLKLASQGLPRG	-0.119
HMNTPTLLLYGGKDHSVPEAGIRHLRAHLSANDRGEYRFYPNAPHLLLQSRQWQQVSQDISQWLAMT	0.037
